In CN118050507A:

Molecular target: O型FMDV流行毒株 (Foot-and-mouth disease virus serotype O)
Assay: cell-based or functional assay

B1: O型口蹄疫病毒中和抗体Ab1 (VHH)
VHH: QVQLQESGGGLVQPGGSLRLSCAASGTPFSGGSINEISINHLGWYRQAPGKERELVAAITRGGSTYYADSVKGRFAISRDDAKKMVYLQMNSLKPEDTAVYYCNGLRASTAQWEESETTWGQGTQVTVSS
B1 gave a Neu 50 (病毒中和试验) of 0.8 µmol/L.
